Measured values from US20230279055A1 (University of Washington, published 2023).

Assays:
[1] = target: the molecule itself; experiment: SEC-MALS, oligomeric state of the dominant species (D = dimer)
Procedure: (§1) FIG. 14. […] Samples were prepared in 20 mM Tris·HCl, 150 mM sodium chloride, pH 7.5.
(§2) To ascertain the oligomerisation state of dIG proteins, SEC-MALS was performed in a Dawn Helios™ II apparatus (Wyatt Technologies) coupled to a SEC Superdex™ 75 Increase 10/300 column. The column was equilibrated with PBS or buffer B at 25° C. and operated at a flow rate of 0.5 mL/min. A total volume of 100-165 μL of protein solution at 1-3.0 mg/mL was employed for each sample. Data processing and analysis proceeded with Astra 7 software (Wyatt Technologies), for which a typical dn/dc value for proteins (0.185 mL/g) was assumed.

[2] = target: the molecule itself; experiment: SEC-MALS, oligomeric state of the dominant species (M = monomer, D = dimer)
Procedure: FIG. 12. Biochemical characterization of the dIG8 design. a, Far-ultraviolet circular dichroism spectra (25° C., 95° C.). b, Thermal denaturation monitored at 220 nm by circular dichroism. The design denatures at temperatures above 95° C. c, SEC-MALS analysis. The protein is monodispersed and has an estimated molecular weight of 16.6 kDa, which lies between that corresponding to the theoretical monomer (10.3 kDa) and dimer (20.6 kDa). The protein includes the thrombin cleavage site and the hexa-histidine purification tag, which adds 2.3 kDa to the design. d, Chemical denaturation with guanidine hydrochloride monitored at 220 nm by circular dichroism. […] All experiments were carried out with PBS buffer.
as §1, §2

[3] = target: the molecule itself; experiment: SEC-MALS, self-association, PBS buffer
Procedure: FIG. 13. […] All experiments were carried out with PBS buffer.
as §2

[4] = target: the molecule itself; experiment: SEC-MALS, self-association

Protein	binding result [1]	further results
dIG23 (other, De novo designed immunoglobulin-like domain; not shown: N-terminal thrombin-cleavable His6-tag encoded by pET-28b+) DLEVRRKDGKFEFRNNSDKPATLEVEKDGQREEYRMNPGETIEVQAPPGQDVRFTVEMPGREYRYKLD	binds	
dIG14 (other, De novo designed immunoglobulin-like domain; Built here as the crystallization construct (pET28*-dIG14); it may instead be the pET-28b+ form with an N-terminal thrombin-cleavable His6-tag; also called designed ImmunoGlobulin 14) MGRVEVRVEFEGDKMRVRLRNDSSTPVEVHIKVGDEKRTVTVNPGEEVEVTFSANDPHKFNRPQFTIEWGGQRQHFQHHHHHH	binds	
dIG8 (other, De novo designed immunoglobulin-like domain; also called parental dIG8; not shown: N-terminal hexa-histidine tag and thrombin cleavage site from pET-28b+ (adds 2.3 kDa)) RIEVRVDNGRVRVRNGTDRPVRVRVTAGGETREYTVNPGTELEVELSPEQQNNAEVEVEVGNEKYRFQLG		binding result [2]: binds
dIG22 (other, De novo designed immunoglobulin-like domain; not shown: N-terminal thrombin-cleavable His6-tag encoded by pET-28b+) SIEVRVKGDRYEFRNNSDKPATLEVEKNGKREEYHMNPGESVEVRGPPGQDIRFEMTMDGTTYRYRLS	binds	
dIG21 (other, De novo designed immunoglobulin-like domain; not shown: N-terminal thrombin-cleavable His6-tag encoded by pET-28b+) SIEVRVKGDRYEFRNNSDKPATLEVEKNGKREEYHMNPGESVEVRGEPGQDIRFEMVMEGTTYRYRLS		binding result [3]: no binding
dIG8-CC (other, C21 and C60 found both disulfide-linked and unbound in the crystals, De novo designed immunoglobulin-like domain, double mutant of dIG8; Built as the untagged crystallization construct; also called dIG8-CC (V21C, V60C)) GHMRIEVRVDNGRVRVRNGTDRPCRVRVTAGGETREYTVNPGTELEVELSPEQQNNAEVEVECGNEKYRFQLG		binding result [2]: binds
dIG7 (other, De novo designed immunoglobulin-like domain; not shown: N-terminal thrombin-cleavable His6-tag encoded by pET-28b+) RMEVRVSNGRVEIENKSSQPGRVEVRFNGKRYEYTANPGERVEVEVSPEELKNLRVRLEYDGKTEETQYS	binds	
dIG15 (other, De novo designed immunoglobulin-like domain; not shown: N-terminal thrombin-cleavable His6-tag encoded by pET-28b+) RPKVQLELHGNKMRVRLRNDSSTPVEVHIKVGDEKRTVTVNPGEEVEVTFSTTDPRELKNATIQLHQGDQTVEYRVD	binds	
dIG14-scdim (other, Two 6-stranded dIG14 domains (X1-X13) fused by a diglycine linker; also called single-chain dimer; dIG14-scdim designed with a GG linker) GRVEVRVEFEGDKMRVRLRNDSSTPVEVHIKVGDEKRTVTVNPGEEVEVTFSANDPHKFNRPQFTIEWGGGGRVEVRVEFEGDKMRVRLRNDSSTPVEVHIKVGDEKRTVTVNPGEEVEVTFSANDPHKFNRPQFTIEWG		binding result [4]: no binding
